One molecule from PMC4797267, “The CSB chromatin remodeler and CTCF architectural protein cooperate in response to oxidative stress” can be followed below.

In the data set the target is T1, MBP-CTCF (zinc fingers 1-11) (UniProt P49711 269-579).
T1 sequence: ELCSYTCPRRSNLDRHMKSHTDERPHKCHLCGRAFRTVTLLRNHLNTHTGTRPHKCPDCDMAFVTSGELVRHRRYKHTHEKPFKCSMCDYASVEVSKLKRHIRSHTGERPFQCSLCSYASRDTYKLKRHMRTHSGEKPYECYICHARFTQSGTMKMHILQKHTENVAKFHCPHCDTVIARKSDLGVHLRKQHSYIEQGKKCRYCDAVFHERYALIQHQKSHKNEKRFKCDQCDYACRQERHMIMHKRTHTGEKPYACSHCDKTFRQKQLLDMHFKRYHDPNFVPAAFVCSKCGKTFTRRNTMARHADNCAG
Description: EMSA; 100 uM ZnSO4, 6 mM Mg2+; no CSB; 30 mM HEPES pH 7.9, 60 mM NaCl, 6% glycerol, 6 mM MgCl2, 100 uM ZnSO4, 0.02% NP40, 30 C 10 min; 1 nM DNA; 5% native PAGE, 0.5x TBE. The following applies: protein: recombinant; tags: MBP; label: 32P (body label, PCR with 32P-dATP); blunt. On the technique in general: In EMSA bound probe runs differently from free probe, usually more slowly.

B1: 200 bp DNA fragment with CTCF-binding site (Fig. S4B) (dsDNA)
DNA 1: CACACCGAGTTCATCCCTTATGTGATGGACCCTCCACGAGGGGGCCCTGGAGAATCCCGGTGCCGAGGCTGCAGAATTGGTCGTAGACAGCTCTAGCACCGCTTAAACGCACGTACGCGCTGTCCCCCGCGTTTTAACCGCCAAGGGGATTACTCCCTAGTCTCCAGGCACGTGTCAGATATATACATCCTGT
DNA 2: ACAGGATGTATATATCTGACACGTGCCTGGAGACTAGGGAGTAATCCCCTTGGCGGTTAAAACGCGGGGGACAGCGCGTACGTGCGTTTAAGCGGTGCTAGAGCTGTCTACGACCAATTCTGCAGCCTCGGCACCGGGATTCTCCAGGGCCCCCTCGTGGAGGGTCCATCACATAAGGGATGAACTCGGTGTG
For B1, the binding result was “binds”.
